No end group written: not given here.
Assays:
TGFβ1 = target: T1, TGFβ1 (Homo sapiens, UniProt P01137); format: cell-based; settings: TGFβ1 200 pg/ml; for inhibitory activity of TGFβ1 (in words): peptide 200 μg/ml, MV-1-Lu cells; for Bioassay (% inhibition): inhibition of TGFβ1 activity, growth of MV-1-Lu cells, peptide concentration 200 μg/ml
T1 construct: the mature TGFβ1 is released by another cut; purchased R&D Systems Europe Ltd., Abingdon, UK
Experimental: A line derived from mink pulmonary epithelium, MV-1-Lu, was used (CCL-64, American Type Cell Culture, Virginia, USA). The cells were grown in 162 cm^2 culture flasks (Costar Corporation, Cambridge, USA) in a stove at 37° C. and 5% CO2, until subconfluence was attained. A complete medium was used: RPMI 1640 with L-glutamine (GibcoBRL, Life Technologies Ltd., Paisley, Scotland) supplemented with 5% of foetal calf serum (FCS, Biological Industries, Kibbutz Beit Haemek, Israel), 10 mM HEPES (1M HEPES Buffer, Bio-Whittaker, Verviers, Belgium) and antibiotics (100 U/ml penicillin and 100 μ/ml streptomycin).
The MV-1-Lu cells grown as indicated above were removed from the bottom of the culture flasks using 5 ml of trypsin-EDTA (Biological Industries, Kibbutz Beit Haemek, Israel), resuspended in complete medium and centrifuged at 1500 rev/min for 8 minutes. After centrifugation the cells were resuspended in complete medium to a concentration of 50,000 cells/ml. For conducting the test, 10 ml of the cell suspension were taken and dispensed in 96-well, flat-bottom culture plates (Costar Corporation, Cambridge, USA), adding 100 μl/well, and were incubated overnight at 37° C. and 5% CO2, which permits adhesion of the cells to the bottom of the wells. […] The final concentration of FCS in the well was 2.5%. After 24 hours of incubation, 1 μCi of tritiated thymidine was added per well (25 Ci/mmol [methyl-^3H]-thymidine, Amersham Life Science, Buckinghamshire, UK) with incubation for a further 12 hours (Grubeck-Loebenstein B. et al. (1989) J. Clin. Invest. 83:764-770; Brennan F M et al. (1990) Clin. Exp. Immunol. 81:278-285).
At the end of the incubation periods the cells were removed from the bottom of the wells with trypsin-EDTA and were collected using a manual harvester (Titertek cell harvester, Skatron Instruments Inc., Sterling, USA) which ruptures the cells, collecting the DNA in nitrocellulose filters (Filter MAT 11731, Skatron Instruments Inc., Sterling, USA) where it is fixed. The filters were placed individually in 5 ml polypropylene tubes to which 4 ml of scintillation fluid was added (Biogreen-11, Reactivos Scharlau S. A., Barcelona, Spain). The activity of each tube was quantified for 90 seconds in a β LKB scintillation counter (Beta plate system, LKB, Uppsala, Sweden).
TGFβ1 is a cytokine that is able to inhibit the growth in vitro of the MV-1-Lu cell line (Grubeck-Loebenstein B. et al. (1989) J. Clin. Invest. 83:764-770; Brennan F M et al. (1990) Clin. Exp. Immunol. 81:278-285), therefore this line was used for testing the blocking effect of peptides on TGFβ1. After different combinations of media, cells and thymidine, we studied the effect of different concentrations of TGFβ1 on incorporation of [methyl-^3H]thymidine by MV-1-Lu cells in culture, for determining the most suitable conditions for the test. […]
(§1) The synthetic peptides that are potentially inhibitors of TGFβ1 activity, selected as indicated above in the section: selection of the peptides to be synthesized (both those derived from proteins that bind to TGFβ1 itself) were tested using the MV-1-Lu cell line. The selected peptides are soluble in buffered RPMI medium. The peptides were dissolved in buffered RPMI medium, free from foetal calf serum, and the following was used.
The peptides belonging to the sequence of the receptor, or complementary to the peaks of hydrophilicity of TGFβ1, were incubated for 30 minutes in the presence of this cytokine and were then combined with the cell culture. The peptides derived from the sequence of TGFβ1 were added to the cell culture prior to addition of TGFβ1, since they interact with the receptors of the cell surface. These incubations were effected in 100 μl of the same medium as was used for adding the cells. The active peptides permitted cell growth to a greater or lesser degree depending on its ability to inhibit TGFβ1.

TGFβ1 cell receptors = test system: TGFβ1 cell receptors; design: species or system human; settings: inhibition of binding of TGFβ1 to its cell receptors, MV-1-Lu cells; peptide concentration 420 μg/ml
Source text: An immunofluorescence kit was used for this (Fluorokine rh TGFβ-biotin, R&D Systems Europe Ltd., Abingdon, UK). This test is based on the capacity of biotinylated TGFβ1 to bind to the cell receptors, in a specific manner, and the subsequent interaction of the biotin with fluorescein-labelled avidin, so that the signal intensity will depend on the quantity of TGFβ1 bound to the cell receptors.
The MV-1-Lu cells grown in 162 cm^2 flasks were removed using solution 1 (described previously) and were resuspended in physiological saline for centrifugation at 500×g for 5 minutes. After centrifugation, the cells were resuspended again in physiological saline at a concentration of 4×10^6 cells/ml. 25 μl of the cell suspension was added to 12×75 mm borosilicate tubes, to which was added the peptide to be tested in 40 μl of RPMI 1640 medium, giving a final concentration of 0.42 μg/μl and 10 μl of biotinylated TGFβ1. […]
At the end of the incubation period, 10 μl of fluorescein-labelled avidin was added, incubating for 30 minutes at 4° C. in darkness, after which 2 ml of a washing solution (RDF1) was added, followed by centrifugation at 500×g for 6 minutes. […] This method permits measurement of the fluorescence emitted by each cell when a laser beam is incident upon it, by means of a computer program (Lisys™ II, Becton Dickinson Immunocytometry Systems, California, USA).
Once the fields had been delimited, the percentage of cells located in each of them was calculated. […]
Peptides derived from previous syntheses, both those that were synthesized from the sequence of TGFβ1 and those from the type III receptor, were used for measuring, by flow cytometry, their capacity to inhibit the binding of TGFβ1 to the cell receptors. In these tests the cells are incubated with the peptide before adding TGFβ1-biotin, which will be detected using avidin-FITC (Material and Methods). Then the fluorescence emitted by the avidin-FITC is measured: this will be directly proportional to the quantity of TGFβ1 bound to the cells and inversely proportional to the activity of the peptide.

[1] = Solubility of the peptides in the test medium; format: physicochemical
Experimental: as §1
The effect of the concentration of peptide P12 on inhibition of the activity of TGFβ1 was investigated.
The effect of the concentration of peptide P54 on inhibition of the activity of TGFβ1 was investigated.

T1 sequence (P01137 279-390): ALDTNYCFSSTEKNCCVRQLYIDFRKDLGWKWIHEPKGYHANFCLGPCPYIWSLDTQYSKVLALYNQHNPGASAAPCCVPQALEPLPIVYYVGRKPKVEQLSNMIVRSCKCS

| Substance | inhibitory activity of TGFβ1 (in words) (TGFβ1) | Bioassay (% inhibition) (TGFβ1) [%] | Cytometry (% inhibition) (TGFβ1 cell receptors) [%] | solubility in the test medium [1] | dependence of the inhibitory activity on the peptide concentration (TGFβ1; dose-response test) | inhibitory activity of nominal concentrations of peptide, before and after filtration (TGFβ1; dose-response test, filtered vs unfiltered stock) |
| --- | --- | --- | --- | --- | --- | --- |
| HANFCLGPCPYIWSL (cysteine pairing not given here) [P11] | – | 40 | 86 | – | – | – |
| LYNQHNPGASAAPCC (cysteine pairing not given here) [P18] | – | 18.2 | 6.5 | – | – | – |
| SNPYSAFQVDIIVDI [P106, SerAsnProTyrSerAlaPheGlnValAspIleIleValAspIle] | had also demonstrated activity | – | – | – | – | – |
| TSLDATMIWTMM [P54] | capable of inhibiting the activity of TGFβ1 almost completely | 97 | 82.3 | low solubility | inhibit the activity of TGFβ1 in a manner that depends on the dose used | no measurable inhibitory activity in the filtrate |

Continued, in another order:

| inhibitory activity of TGFβ1 (in words) (TGFβ1) | Bioassay (% inhibition) (TGFβ1) [%] | Substance | Cytometry (% inhibition) (TGFβ1 cell receptors) [%] | solubility in the test medium [1] | dependence of the inhibitory activity on the peptide concentration (TGFβ1; dose-response test) | inhibitory activity of nominal concentrations of peptide, before and after filtration (TGFβ1; dose-response test, filtered vs unfiltered stock) |
| --- | --- | --- | --- | --- | --- | --- |
| not found to be active | – | CDIHVLKQDGFSVLFTKCD (cysteine pairing not given here) [P149] | – | – | – | – |
| not found to be active | – | CysValAlaValTrpArgLysAsnAspGluAsnIleThrLeuGluThrValCys (CVAVWRKNDENITLETVC; Synthetic peptide from rat TGB beta 1 type III receptor, position 84-101) [P146] | – | – | – | – |

From US7528226B2, “TGFβ1-inhibitor peptides” (Rojecto de Biomedicina Cima S.L., priority 1998, dated 2009)
